Results from the supplement of paper PMC12764529.
± gives the half width of the 95% confidence interval.

Columns and labels:
[1] = folding stability dG unfold from trypsin proteolysis; higher = more stable
Summary of the method: (§1)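 How resistant each design was to proteolysis was captured as K50, inferred by Bayesian fitting of sequencing counts. Unfolding free energy was then derived relative to a sequence-predicted unfolded-state K50 and a shared folded-state K50, per protease or combined. Digestion used trypsin and chymotrypsin at 11 threefold-diluted concentrations plus a no-protease condition, on mini-proteins under 80 residues without cysteine in a PA-tagged cDNA display construct. Designs were kept only when AlphaFold2 dimer inter-PAE was above 15.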

[2] = folding stability dG unfold from chymotrypsin proteolysis; higher = more stable
Summary of the method: as §1

[3] = folding stability dG unfold (combined trypsin and chymotrypsin); higher = more stable
Summary of the method: as §1

Sequence: SAGGSAFEEVKKKYPNAKWEKIGDEGDTAVYRLTFPGGEKILITVPTLPETDEPVVEVTYVPKGEESAGGSA [r15_547_JUSTAS]
- folding stability dG unfold [1]: 2.71 ± 0.093 kcal/mol
- folding stability dG unfold [2]: 2.842 ± 0.017 kcal/mol
- folding stability dG unfold [3]: 2.82 ± 0.059 kcal/mol

Sequence: SAGGSAGGSAGGSYTVSEIPEEGLVLKTLPNGVVTRYKVSPDGSLEEIATFEPGNGVLIKSAGGSAGGSAGG [r7_659_JUSTAS]
- folding stability dG unfold [1]: -0.0116 ± 0.3 kcal/mol
- folding stability dG unfold [2]: 1.1 ± 0.096 kcal/mol
- folding stability dG unfold [3]: 0.766 ± 0.11 kcal/mol

Sequence: ENYVAIEITMEMPNPDGMEMKFDLKIIKLDPDDGKFAIEMSMEMENPNGKPYRHPMWFVIPADELKEFLEAS [r1_371_TrROS]
- folding stability dG unfold [1]: 2.56 ± 0.22 kcal/mol
- folding stability dG unfold [2]: 4.12 ± 0.12 kcal/mol
- folding stability dG unfold [3]: 3.54 ± 0.28 kcal/mol

Sequence: SAGGSAGGSAMLTIPVTTPEEARELAEELLRRGYLRVEPTEDGDVTVIHPDGVPTRILVPTESAGGSAGGSA [r18_126_TrMRF]
- folding stability dG unfold [1]: 0.471 ± 0.043 kcal/mol
- folding stability dG unfold [2]: 0.551 ± 0.11 kcal/mol
- folding stability dG unfold [3]: 0.558 ± 0.059 kcal/mol

Sequence: SAGGSAGGAVDPALVSEETTSTSYYPDGTVVTTTTLKVPGKGTTVTLTTVTPLPPSSPSPSASLSAGGSAGG [r6_758_JUSTAS]
- folding stability dG unfold [1]: 1.13 ± 0.043 kcal/mol
- folding stability dG unfold [2]: 0.437 ± 0.077 kcal/mol
- folding stability dG unfold [3]: 0.761 ± 0.23 kcal/mol

Sequence: SAGGSAGGSMKVEIKFPDGSVKTIPLSPEEPDVPPEALVKELGADNVTITYYTPDGVPINLGISAGGSAGGS [r12_411_JUSTAS]
- folding stability dG unfold [1]: 0.297 ± 0.058 kcal/mol
- folding stability dG unfold [2]: 0.916 ± 0.03 kcal/mol
- folding stability dG unfold [3]: 0.706 ± 0.053 kcal/mol

Sequence: SSPEEDLEEIEITVTNPNDPRPSFVKVTRSPEGYEATFTLPDGKTVKIPPELGLEEIKKLPSSFTITILPSA [r9_781_JUSTAS]
- folding stability dG unfold [1]: 0.0376 ± 0.059 kcal/mol
- folding stability dG unfold [2]: 0.83 ± 0.087 kcal/mol
- folding stability dG unfold [3]: 0.561 ± 0.064 kcal/mol

Sequence: SAGGSAGGSKIKPGEKVEIKLKIKVKDKNGKEKEIELTFSKDMTVEEIKKLLKELEKKGFEIESAGGSAGGS [r20_27_TrROS_Hall]
- folding stability dG unfold [1]: 1.56 ± 0.12 kcal/mol
- folding stability dG unfold [2]: 3.23 ± 0.24 kcal/mol
- folding stability dG unfold [3]: 2.72 ± 0.33 kcal/mol

Sequence: SALEELLKELAEKLGYPYTVLEIKKEENTYKMVIKLTKEGTPVIVDVEIEFPSSDPNVYKVKIKKIEEPSAG [r14_387_JUSTAS]
- folding stability dG unfold [1]: 2.8 ± 0.087 kcal/mol
- folding stability dG unfold [2]: 3.603 ± 0.027 kcal/mol
- folding stability dG unfold [3]: 3.49 ± 0.072 kcal/mol

Sequence: SAGGSAGMPDPPLEGLKEALREALAANPGEEVTLTVPRADGRTLTVRGTKDGGIEITLPDGTRIALSAGGSA [r15_73_JUSTAS]
- folding stability dG unfold [1]: 1.58 ± 0.036 kcal/mol
- folding stability dG unfold [2]: 1.52 ± 0.087 kcal/mol
- folding stability dG unfold [3]: 1.58 ± 0.072 kcal/mol

Sequence: SAGKSKPILVEITFPNGEKAKVLAVEFPNTVYVFAVVTSKDGSKYLVEAIIDVSPTKIKIFTKSYPLESAGG [r19_385_TrMRF]
- folding stability dG unfold [1]: 2.56 ± 0.1 kcal/mol
- folding stability dG unfold [2]: 4.1 ± 0.043 kcal/mol
- folding stability dG unfold [3]: 3.64 ± 0.081 kcal/mol

Sequence: SAGGKDGKPKPKVEPEITVQFYIPLPPDDLTPEEIAQWMSDHFGFPFTNVEIERHPEDNYYRVSFTIRSAGG [r13_457_TrROS]
- folding stability dG unfold [1]: 1.86 ± 0.064 kcal/mol
- folding stability dG unfold [2]: 2.56 ± 0.1 kcal/mol
- folding stability dG unfold [3]: 2.4 ± 0.086 kcal/mol

Sequence: SAIKIEEIKDVNPENKNIRIKIEMPGGPHEIPIPAKSEMDVEEALDLILDWFERHFPPGHKMRIEEIEISAG [r14_422_TrROS]
- folding stability dG unfold [1]: 0.886 ± 0.091 kcal/mol
- folding stability dG unfold [2]: -0.0828 ± 0.13 kcal/mol
- folding stability dG unfold [3]: 0.341 ± 0.1 kcal/mol

Sequence: SAGGSAETLVITLPPELEGLSEEELLALLKALLPPGAEITEIRVERLPDGSLRVTVTVRVPPPEEPSAGGSA [r15_451_TrROS_Hall]
- folding stability dG unfold [1]: 3.33 ± 0.24 kcal/mol
- folding stability dG unfold [2]: 2.18 ± 0.061 kcal/mol
- folding stability dG unfold [3]: 2.65 ± 0.15 kcal/mol

Sequence: SAGGSAGGSAGKKEKVILLPVDAEPDETPEELAKKLKELNPDVEVLGFDPETGYVLVKVPSAGGSAGGSAGG [r11_465_TrMRF]
- folding stability dG unfold [1]: 0.107 ± 0.053 kcal/mol
- folding stability dG unfold [2]: -0.0143 ± 0.28 kcal/mol
- folding stability dG unfold [3]: 0.149 ± 0.18 kcal/mol

Sequence: SAGGSAGLRVRLADGSELSVSPIPDKLRVVVTLPNGARIPIDVEDGELVEIVRDPAVPADFYIEEISAGGSA [r15_709_JUSTAS]
- folding stability dG unfold [1]: 0.419 ± 0.14 kcal/mol
- folding stability dG unfold [2]: 1.25 ± 0.043 kcal/mol
- folding stability dG unfold [3]: 1.06 ± 0.1 kcal/mol

Sequence: SAGGSAMMTVTITIPKENLTKEEIKKALEEAGAKVVKVEEKDGKVTVTVEMTPEQVEKLKEALKKLSAGGSA [r15_161_TrROS_Hall]
- folding stability dG unfold [1]: 3.98 ± 0.46 kcal/mol
- folding stability dG unfold [2]: 3.53 ± 0.28 kcal/mol
- folding stability dG unfold [3]: 4.14 ± 0.45 kcal/mol

Sequence: SAGGSAGGSMRIKTIKVIPQDDGMYSINITFPGVEREIPIPPQMPPDQITEIEIPIYFDGEPPSAGGSAGGS [r12_673_TrROS]
- folding stability dG unfold [1]: -0.257 ± 0.16 kcal/mol
- folding stability dG unfold [2]: 0.436 ± 0.12 kcal/mol
- folding stability dG unfold [3]: 0.212 ± 0.097 kcal/mol

Sequence: SAGGSADYVFVRIEVRDPKNKQPMSIMIPVPPDMTPDEAIEEAEMIANTFKEKGLEITVEVEPMPPSAGGSA [r15_268_TrROS]
- folding stability dG unfold [1]: 1.44 ± 0.24 kcal/mol
- folding stability dG unfold [2]: 1.56 ± 0.13 kcal/mol
- folding stability dG unfold [3]: 1.45 ± 0.22 kcal/mol

Sequence: SAGGSAGGSELEKALASAKPGEEVTVTVESTTPDGTPSVEIVEVKVEAETPSPGKENLEKNRLVSAGGSAGG [r6_893_JUSTAS]
- folding stability dG unfold [1]: -0.602 ± 0.23 kcal/mol
- folding stability dG unfold [2]: 0.0837 ± 0.065 kcal/mol
- folding stability dG unfold [3]: -0.112 ± 0.44 kcal/mol

Sequence: SAGGSMAEPGPMNMTLSFDGIEKEFSVEITVRKRPDGTEVLELRLPDGVPLTLPAAEAAKIVDMSGSAGGSA [r2_297_JUSTAS]
- folding stability dG unfold [1]: 0.549 ± 0.023 kcal/mol
- folding stability dG unfold [2]: 0.879 ± 0.036 kcal/mol
- folding stability dG unfold [3]: 0.764 ± 0.051 kcal/mol
